Measured values as given in article PMC3750073 (Biochemistry, 2013).

B1: SeMet MilB (selenomethionine-containing MilB, CMP hydrolase of Streptomyces rimofaciens ZJU5119) (enzyme, UniProt B4Y381 1-170, looked up)
chain: MTTTPKPRTAPAVGSVFLGGPFRQLVDPRTGVMSSGDQNVFSRLIEHFESRGTTVYNAHRREAWGAEFLSPAEATRLDHDEIKAADVFVAFPGVPASPGTHVEIGWASGMGKPMVLLLERDEDYAFLVTGLESQANVEILRFSGTEEIVERLDGAVARVLGRAGEPTVIG
modifications: selenomethionine (SeMet-containing protein)

Legend:
[1] = system: Nc1ccn([C@H]2C[C@H](O)[C@@H](COP(=O)(O)O)O2)c(=O)n1; assay: purified protein; conditions: pH 7.5; 37.0 °C
[2] = system: Nc1ccn([C@@H]2O[C@H](COP(=O)(O)O)[C@@H](O)[C@H]2O)c(=O)n1; assay: purified protein; conditions: pH 7.5; 37.0 °C
crystal structure = target: the molecule itself; assay: crystal structure

Molecule	Km [1]	kcat/Km [1]	Km [2]	kcat/Km [2]	stoichiometry N (crystal structure)
(Streptomyces rimofaciens)	5.4 (0.8) mM	1.1 M⁻¹ s⁻¹	3.8 (0.5) mM	5.2 M⁻¹ s⁻¹	–
B1	–	–	–	–	2
